Assay [1] addresses CD68 on macrophages of mouse splenocytes (mouse) (UniProt P31996). The experiment in a line: cell-based or functional assay.
The target in assay [2] is Discoidin domain receptor tyrosine kinase 2 (DDR2) on neonatal rat cardiac fibroblasts (rat). Put plainly: cell-based or functional assay.

The source of these data is patent US20200316226A1.

Sequence of UniProt P31996 (P31996 21-326): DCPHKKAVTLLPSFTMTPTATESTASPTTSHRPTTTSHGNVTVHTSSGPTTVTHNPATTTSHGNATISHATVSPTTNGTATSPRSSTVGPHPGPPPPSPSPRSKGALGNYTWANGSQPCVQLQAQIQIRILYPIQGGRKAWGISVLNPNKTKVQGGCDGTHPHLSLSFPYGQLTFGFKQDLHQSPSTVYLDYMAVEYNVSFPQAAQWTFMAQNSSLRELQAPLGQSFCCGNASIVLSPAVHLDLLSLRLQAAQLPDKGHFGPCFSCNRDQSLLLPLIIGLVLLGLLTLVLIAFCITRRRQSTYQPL

On to “biotinylated CD68 monoclonal antibody (bio-CD68), clone FA-11 (ThermoFisher)”, for which, in assay [1], the macrophage uptake of FITC:CD68-cloaked CDCexo by FACS, 5 minutes of incubation came to 91% and the macrophage uptake of FITC:CD68-cloaked CDCexo by FACS, 15 minutes of incubation turned out to be 93%.

In the case of “biotinylated IgG isotype antibody (bio-IgG) control (rabbit IgG isotype control, Abcam cat # ab200208)”, in assay [2], the rate of uptake of control-cloaked CDCexo by rat cardiac fibroblasts, flow cytometry came out at 5% and the uptake of bio-IgG/FITC CDC-EV by neonatal rat cardiac fibroblasts after twelve hours, flow cytometry was determined as 5%.
